In article PMC8406831, “High-resolution structure of the amino acid transporter AdiC reveals insights into the role of water molecules and networks in oligomerization and substrate binding” (BMC Biology, 2021):

Biological target: the molecule itself
Test: SEC; Superdex 200 5/150 GL, 20 mM Tris-HCl, pH 8.0, 150 mM NaCl, 0.04% (w/v) DDM; elution volumes of the mutants compared with the wild type

Protein | binding result
AdiC-Q88E (natural protein, E. coli, AdiC, L-arginine/agmatine transporter of E. coli (gene from XL1-Blue genomic DNA, vector pZUDF21) with the point mutation Q88E; Residues of the HRV3C site may remain at the C-terminus after cleavage; source: E. coli BL21(DE3) pLysS, purified (Ni-NTA in DDM, on-column HRV3C cleavage); not shown: deca His-tag, C-terminal, cleaved) MSSDADAHKVGLIPVTLMVSGNIMGSGVFLLPANLASTGGIAIYGWLVTIIGALGLSMVYAKMSFLDPSPGGSYAYARRCFGPFLGYETNVLYWLACWIGNIAMVVIGVGYLSYFFPILKDPLVLTITCVVVLWIFVLLNIVGPKMITRVQAVATVLALIPIVGIAVFGWFWFRGETYMAAWNVSGLGTFGAIQSTLNVTLWSFIGVESASVAAGVVKNPKRNVPIATIGGVLIAAVCYVLSTTAIMGMIPNAALRVSASPFGDAARMALGDTAGAIVSFCAAAGCLGSLGGWTLLAGQTAKAAADDGLFPPIFARVNKAGTPVAGLIIVGILMTIFQLSSISPNATKEFGLVSSVSVIFTLVPYLYTCAALLLLGHGHFGKARPAYLAVTTIAFLYCIWAVVGSGAKEVMWSFVTLMVITAMYALNYNRLHKNPYPLDAPISKD | binds
AdiC-Y367F (natural protein, E. coli, AdiC, L-arginine/agmatine transporter of E. coli (gene from XL1-Blue genomic DNA, vector pZUDF21) with the point mutation Y367F; Residues of the HRV3C site may remain at the C-terminus after cleavage; source: E. coli BL21(DE3) pLysS, purified (Ni-NTA in DDM, on-column HRV3C cleavage); not shown: deca His-tag, C-terminal, cleaved) MSSDADAHKVGLIPVTLMVSGNIMGSGVFLLPANLASTGGIAIYGWLVTIIGALGLSMVYAKMSFLDPSPGGSYAYARRCFGPFLGYQTNVLYWLACWIGNIAMVVIGVGYLSYFFPILKDPLVLTITCVVVLWIFVLLNIVGPKMITRVQAVATVLALIPIVGIAVFGWFWFRGETYMAAWNVSGLGTFGAIQSTLNVTLWSFIGVESASVAAGVVKNPKRNVPIATIGGVLIAAVCYVLSTTAIMGMIPNAALRVSASPFGDAARMALGDTAGAIVSFCAAAGCLGSLGGWTLLAGQTAKAAADDGLFPPIFARVNKAGTPVAGLIIVGILMTIFQLSSISPNATKEFGLVSSVSVIFTLVPYLFTCAALLLLGHGHFGKARPAYLAVTTIAFLYCIWAVVGSGAKEVMWSFVTLMVITAMYALNYNRLHKNPYPLDAPISKD | binds
AdiC-T421V (natural protein, E. coli, AdiC, L-arginine/agmatine transporter of E. coli (gene from XL1-Blue genomic DNA, vector pZUDF21) with the point mutation T421V; Residues of the HRV3C site may remain at the C-terminus after cleavage; source: E. coli BL21(DE3) pLysS, purified (Ni-NTA in DDM, on-column HRV3C cleavage); not shown: deca His-tag, C-terminal, cleaved) MSSDADAHKVGLIPVTLMVSGNIMGSGVFLLPANLASTGGIAIYGWLVTIIGALGLSMVYAKMSFLDPSPGGSYAYARRCFGPFLGYQTNVLYWLACWIGNIAMVVIGVGYLSYFFPILKDPLVLTITCVVVLWIFVLLNIVGPKMITRVQAVATVLALIPIVGIAVFGWFWFRGETYMAAWNVSGLGTFGAIQSTLNVTLWSFIGVESASVAAGVVKNPKRNVPIATIGGVLIAAVCYVLSTTAIMGMIPNAALRVSASPFGDAARMALGDTAGAIVSFCAAAGCLGSLGGWTLLAGQTAKAAADDGLFPPIFARVNKAGTPVAGLIIVGILMTIFQLSSISPNATKEFGLVSSVSVIFTLVPYLYTCAALLLLGHGHFGKARPAYLAVTTIAFLYCIWAVVGSGAKEVMWSFVTLMVIVAMYALNYNRLHKNPYPLDAPISKD | binds
